According to publication PMC12402098, “YTHDF3 recognizes DNA N6-methyladenine and recruits ALKBH1 for 6mA removal from genomic DNA” (The EMBO Journal, 2025):
Values belong to the binder of their own block, whether it stands above or below them.

What was measured:
YTHDF3 wild type [1] = target: T1, YTHDF3 wild type (UniProt Q7Z739 1-585); assay: EMSA, pull-down; SPR: 1x HBS-EP+, biotin-DNA on SA chip (~500 RU), 30 ul/min; EMSA: LightShift kit, 30 C 20 min, then 2% glutaraldehyde on ice 15 min, 5% native gel; pull-down:; settings: protein: recombinant, tags: His
T1 sequence: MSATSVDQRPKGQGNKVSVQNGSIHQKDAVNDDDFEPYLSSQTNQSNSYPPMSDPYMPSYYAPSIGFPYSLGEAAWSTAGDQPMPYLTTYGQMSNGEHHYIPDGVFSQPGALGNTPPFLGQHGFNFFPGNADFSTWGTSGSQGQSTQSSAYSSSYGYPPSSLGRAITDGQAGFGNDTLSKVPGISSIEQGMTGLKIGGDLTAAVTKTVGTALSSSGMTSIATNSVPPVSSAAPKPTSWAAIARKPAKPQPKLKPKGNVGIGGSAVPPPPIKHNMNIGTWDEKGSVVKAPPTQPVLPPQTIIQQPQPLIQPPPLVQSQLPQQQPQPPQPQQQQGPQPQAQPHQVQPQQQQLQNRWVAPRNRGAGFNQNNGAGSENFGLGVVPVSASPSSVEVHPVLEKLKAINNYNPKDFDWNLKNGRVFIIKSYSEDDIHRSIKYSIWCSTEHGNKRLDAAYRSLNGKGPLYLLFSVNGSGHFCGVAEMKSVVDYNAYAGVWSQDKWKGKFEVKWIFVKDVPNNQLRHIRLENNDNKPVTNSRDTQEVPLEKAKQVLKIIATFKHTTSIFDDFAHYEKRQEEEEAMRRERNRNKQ

ALKBH1;YTHDF3 wild type = target: T2, ALKBH1;YTHDF3 wild type (Homo sapiens?;Homo sapiens?, UniProt Q13686;Q7Z739 1-389;1-585, |); assay: pull-down; YTHDF3 increases ALKBH1 binding; SPR: 1x HBS-EP+, biotin-DNA on SA chip (~500 RU), 30 ul/min; EMSA: LightShift kit, 30 C 20 min, then 2% glutaraldehyde on ice 15 min, 5% native gel; pull-down:; settings: protein: recombinant;recombinant
T2 sequence 1: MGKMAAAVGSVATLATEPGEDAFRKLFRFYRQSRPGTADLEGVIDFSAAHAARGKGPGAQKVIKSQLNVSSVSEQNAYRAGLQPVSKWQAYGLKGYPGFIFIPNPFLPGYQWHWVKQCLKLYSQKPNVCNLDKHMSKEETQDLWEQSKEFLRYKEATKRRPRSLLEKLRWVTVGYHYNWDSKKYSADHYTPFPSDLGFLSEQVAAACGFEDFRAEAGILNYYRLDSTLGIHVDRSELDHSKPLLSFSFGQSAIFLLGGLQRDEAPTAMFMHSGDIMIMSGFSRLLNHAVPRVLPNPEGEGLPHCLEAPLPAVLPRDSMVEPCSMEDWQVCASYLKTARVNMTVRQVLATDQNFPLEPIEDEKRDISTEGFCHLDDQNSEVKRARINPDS
T2 sequence 2: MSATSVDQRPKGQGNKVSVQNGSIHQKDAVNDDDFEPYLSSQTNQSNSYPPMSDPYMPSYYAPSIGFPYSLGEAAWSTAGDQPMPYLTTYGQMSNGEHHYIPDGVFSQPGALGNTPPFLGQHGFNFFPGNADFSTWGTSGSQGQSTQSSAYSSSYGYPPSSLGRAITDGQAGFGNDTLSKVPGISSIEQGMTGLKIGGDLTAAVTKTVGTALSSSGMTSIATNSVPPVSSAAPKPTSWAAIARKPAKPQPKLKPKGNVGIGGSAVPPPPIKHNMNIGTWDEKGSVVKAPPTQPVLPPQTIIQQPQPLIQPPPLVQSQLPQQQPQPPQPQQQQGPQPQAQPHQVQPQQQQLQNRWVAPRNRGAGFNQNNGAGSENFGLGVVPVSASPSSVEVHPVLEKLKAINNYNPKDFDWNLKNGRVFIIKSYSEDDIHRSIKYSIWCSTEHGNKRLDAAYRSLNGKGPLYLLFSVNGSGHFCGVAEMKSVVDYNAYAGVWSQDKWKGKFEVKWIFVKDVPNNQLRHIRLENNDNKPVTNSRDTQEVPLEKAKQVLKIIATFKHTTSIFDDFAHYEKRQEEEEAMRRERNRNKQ

YTHDF3-His = target: T3, YTHDF3-His (UniProt Q7Z739 1-585); assay: native gel or EMSA; recombinant ALKBH1 and increasing recombinant YTHDF3 with biotin-labeled 6mA-dsDNA oligos, 30 °C 20 min, 2% glutaraldehyde on ice 15 min, 5% nondenaturing gel; settings: both partners purified
T3 construct: YTHDF3 inserted into pET 26b vector; pET26b would give a C-terminal His tag (surmise); also called recombinant YTHDF3; wild-type YTHDF3; source: E. coli BL21 (DE3), purified (His-tag protein purification kit); also coexpressed with ALKBH1 in E. coli, in lysate
T3 sequence (looked up): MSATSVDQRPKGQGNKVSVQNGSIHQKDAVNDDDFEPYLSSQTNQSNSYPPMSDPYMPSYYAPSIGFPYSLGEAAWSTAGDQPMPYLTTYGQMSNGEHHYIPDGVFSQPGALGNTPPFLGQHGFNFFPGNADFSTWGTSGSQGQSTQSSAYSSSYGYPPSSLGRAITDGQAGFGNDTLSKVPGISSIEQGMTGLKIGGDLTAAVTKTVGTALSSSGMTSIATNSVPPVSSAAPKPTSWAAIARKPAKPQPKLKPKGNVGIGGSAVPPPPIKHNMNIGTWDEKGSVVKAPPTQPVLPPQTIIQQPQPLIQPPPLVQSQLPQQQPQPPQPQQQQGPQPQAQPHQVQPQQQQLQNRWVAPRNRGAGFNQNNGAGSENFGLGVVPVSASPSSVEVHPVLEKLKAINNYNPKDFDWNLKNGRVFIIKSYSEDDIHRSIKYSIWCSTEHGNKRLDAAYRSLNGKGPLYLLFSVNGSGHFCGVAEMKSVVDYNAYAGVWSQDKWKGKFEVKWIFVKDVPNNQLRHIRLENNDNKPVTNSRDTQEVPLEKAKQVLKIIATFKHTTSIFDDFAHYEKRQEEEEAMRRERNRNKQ

[2] = target: T4, YTHDF3-His MT6mA (W438R/W492R) (UniProt Q7Z739 1-585, W438R | W492R); assay: pull-down; GST pull-down: recombinant YTHDF3-His proteins incubated with recombinant ALKBH1-GST protein beads at 4 °C for 1 h, washed three times, eluted with reduced L-glutathione, western blot; settings: both partners purified
T4 construct: YTHDF3 with W438R/W492R in the YTH domain, in pET 26b vector; also called YTHDF3-MT6mA-His; YTHDF3 W438R/W492R mutant; source: E. coli BL21 (DE3), purified (His-tag protein purification kit)
T4 sequence (looked up): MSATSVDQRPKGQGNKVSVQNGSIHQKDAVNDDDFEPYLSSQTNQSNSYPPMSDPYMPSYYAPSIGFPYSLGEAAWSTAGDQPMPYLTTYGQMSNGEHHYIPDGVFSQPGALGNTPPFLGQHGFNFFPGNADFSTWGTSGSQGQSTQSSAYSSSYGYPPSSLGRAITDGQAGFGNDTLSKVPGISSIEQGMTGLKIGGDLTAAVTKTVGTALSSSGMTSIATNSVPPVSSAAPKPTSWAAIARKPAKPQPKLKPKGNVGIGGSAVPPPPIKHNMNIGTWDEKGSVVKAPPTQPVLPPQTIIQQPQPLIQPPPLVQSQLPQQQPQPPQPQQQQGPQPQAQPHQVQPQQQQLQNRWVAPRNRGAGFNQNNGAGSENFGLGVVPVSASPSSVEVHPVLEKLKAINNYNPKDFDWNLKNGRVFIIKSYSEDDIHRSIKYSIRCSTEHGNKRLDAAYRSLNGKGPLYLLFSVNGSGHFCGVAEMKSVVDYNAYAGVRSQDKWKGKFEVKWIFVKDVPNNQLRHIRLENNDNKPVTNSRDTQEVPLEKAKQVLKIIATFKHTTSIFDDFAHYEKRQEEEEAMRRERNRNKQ

YTHDF3 wild type [3] = target: T1, YTHDF3 wild type; assay: EMSA; SPR: 1x HBS-EP+, biotin-DNA on SA chip (~500 RU), 30 ul/min; EMSA: LightShift kit, 30 C 20 min, then 2% glutaraldehyde on ice 15 min, 5% native gel; pull-down:; settings: protein: recombinant, tags: His
[4] = label: 3' biotin strand 1, duplex with bulge of unpaired nt in strand 1 around 6mA
[5] = label: 3' biotin strand 1, duplex with internal mismatch bubble around 6mA

B1: Bulge-6mA (mixed)
DNA 1: AACTTCGTGCAGGCATGGGATCTTGTCTACT
DNA 2: AGTAGACACATGCCTGCACGAAGTT
modifications: N6-methyl-dA at A20 of strand 1
binding result (YTHDF3 wild type [1]; [4]): binds
binding result (ALKBH1;YTHDF3 wild type; [4]): binds

Binder: AACTTCGTGCAGGCATGGGATCTTGTCTACT (ssDNA, N6-methyl-dA at A20) [ss-6mA]
binding result (YTHDF3 wild type [1]; label: 3' biotin): binds
binding result (ALKBH1;YTHDF3 wild type; label: 3' biotin): binds

B2: Bubble-6mA (mixed)
DNA 1: AACTTCGTGCAGGCATGGGATCTTGTCTACT
DNA 2: AGTAGACAGTCGATCATGCCTGCACGAAGTT
modifications: N6-methyl-dA at A20 of strand 1
binding result (YTHDF3 wild type [1]; [5]): binds
binding result (ALKBH1;YTHDF3 wild type; [5]): binds

binding result (YTHDF3-His): binds
binding result [2]: binds
B3: ALKBH1-GST (enzyme, UniProt Q13686 1-389, looked up)
chain: MGKMAAAVGSVATLATEPGEDAFRKLFRFYRQSRPGTADLEGVIDFSAAHAARGKGPGAQKVIKSQLNVSSVSEQNAYRAGLQPVSKWQAYGLKGYPGFIFIPNPFLPGYQWHWVKQCLKLYSQKPNVCNLDKHMSKEETQDLWEQSKEFLRYKEATKRRPRSLLEKLRWVTVGYHYNWDSKKYSADHYTPFPSDLGFLSEQVAAACGFEDFRAEAGILNYYRLDSTLGIHVDRSELDHSKPLLSFSFGQSAIFLLGGLQRDEAPTAMFMHSGDIMIMSGFSRLLNHAVPRVLPNPEGEGLPHCLEAPLPAVLPRDSMVEPCSMEDWQVCASYLKTARVNMTVRQVLATDQNFPLEPIEDEKRDISTEGFCHLDDQNSEVKRARINPDS
notes: ALKBH1 inserted into pGEX vector; it would add GST at the N-terminus (surmise). 'Recombinant ALKBH1' of EMSA, DNA pull-down and demethylase assays may be this protein or ALKBH1-His; also called recombinant ALKBH1; A1; source: E. coli BL21 (DE3), purified (glutathione Sepharose; on beads or eluted with reduced L-glutathione)

Binder: CCCGGUUCGAUUCCCGG (ssRNA, N1-methyladenosine at A10) [tRNA-m1A-oligo]
binding result (YTHDF3 wild type [3]; label: 3' biotin): no binding

Binder: CGUCUCGGACUCGGACUGCU (ssRNA, N6-methyladenosine at A9) [ss-m6A-oligo]
binding result (YTHDF3 wild type [3]; label: 5' biotin): binds
